For test [1], the target named is BTN3A1 B30.2 domain (human) (UniProt O00481).
In test [2] the target is BTN3A1 B30.2 domain, O00481. Nature of the test: ITC. The conditions noted are these: chain shown with the change; with HMBPP.
Sequence of BTN3A1 B30.2 domain, O00481 (O00481 328-513): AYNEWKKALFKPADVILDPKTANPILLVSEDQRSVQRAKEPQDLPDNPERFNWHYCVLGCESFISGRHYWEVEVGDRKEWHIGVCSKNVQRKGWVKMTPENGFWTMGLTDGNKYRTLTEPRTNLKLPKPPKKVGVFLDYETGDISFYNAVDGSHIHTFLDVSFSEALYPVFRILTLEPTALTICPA

Sequence of BTN3A1 B30.2 domain (human) (O00481 328-513): as above

B1: BTN2A1 B30.2 domain (domain or fragment)
chain: EELRWRRTFLHAVDVVLDPDTAHPDLFLSEDRRSVRRCPFRHLGESVPDNPERFDSQPCVLGRESFASGKHYWEVEVENVIEWTVGVCRDSVERKGEVLLIPQNGFWTLEMHKGQYRAVSSPDRILPLKESLCRVGVFLDYEAGDVSFYNMRDRSHIYTCPRSAFSVPVRPFFRLGCEDSPIFICPALTGANGVTVPEEGLTLHRVGTHQSL
As to B1, the AFM-SCFS binding force between a Vγ9Vδ2 T cell and a MIA PaCa-2 cell, without and with HMBPP treatment in test [1] was found to be 1550 pN.

B2: BTN2A2 B30.2 domain, Q8WVV5 W374R; M506T (protein)
chain: EELRWRRTFLHAADVVLDPDTAHPELFLSEDRRSVRRGPYRQRVPDNPERFDSQPCVLGRESFASGKHYWEVEVENVMVWTVGVCRHSVERKGEVLLIPQNGFWTLEMFGNQYRALSSPERILPLKESLCRVGVFLDYEAGDVSFYNMRDRSHIYTCPRSAFTVPVRPFFRLGSDDSPIFICPALTGASGVTVPEEGLKLHRVGTHQSL
Molecule B2 registered a dissociation constant (Kd) in test [2] of 189 nM.

These data come from paper PMC10533412, “Phosphoantigens glue butyrophilin 3A1 and 2A1 to activate Vγ9Vδ2 T cells” (Nature, 2023).
